The text below walks through data of PMC7038937.

Some targets named below: STAU1 dsRBD3/4 (Homo sapiens, UniProt O95793-2 102-274); STAU1 dsRBD4 (Homo sapiens, UniProt O95793-2 205-274); dsRBD3/4 I105A S106A (Homo sapiens, UniProt O95793-2 102-274, I105A;S106A); dsRBD3 E110A L113A (Homo sapiens, UniProt O95793-2 102-181, E110A;L113A); dsRBD3/4 S208A (Homo sapiens, UniProt O95793-2 102-274, S208A); dsRBD3/4 K133A (Homo sapiens, UniProt O95793-2 102-274, K133A); dsRBD3/4 Q212A Q215A (Homo sapiens, UniProt O95793-2 102-274, Q212A;Q215A); dsRBD3 F109A (Homo sapiens, UniProt O95793-2 102-181, F109A); dsRBD4 Q212A Q215A (Homo sapiens, UniProt O95793-2 205-274, Q212A;Q215A); dsRBD3/4 R209A (Homo sapiens, UniProt O95793-2 102-274, R209A); dsRBD4 S208A Q212A Q215A (Homo sapiens, UniProt O95793-2 205-274, S208A;Q212A;Q215A); dsRBD3/4 F109A (Homo sapiens, UniProt O95793-2 102-274, F109A); dsRBD3/4 F109A R209A (Homo sapiens, UniProt O95793-2 102-274, F109A;R209A); dsRBD3/4 R234A R236A (Homo sapiens, UniProt O95793-2 102-274, R234A;R236A); dsRBD3 I105A S106A (Homo sapiens, UniProt O95793-2 102-181, I105A;S106A); STAU1 dsRBD3 (Homo sapiens, UniProt O95793-2 102-181); dsRBD3/4 E110A L113A (Homo sapiens, UniProt O95793-2 102-274, E110A;L113A).

Common to all, as to assay: fluorescence anisotropy
A general note: In fluorescence polarisation assays a small probe gives low polarisation when free and higher when bound to something large.

The target in data set [1] is dsRBD3/4 I105A S106A S208A Q212A Q215A (Homo sapiens, UniProt O95793-2 102-274, I105A;S106A;S208A;Q212A;Q215A).
Chain of dsRBD3/4 I105A S106A S208A Q212A Q215A (O95793 183-355 I186A/S187A/S289A/Q293A/Q296A): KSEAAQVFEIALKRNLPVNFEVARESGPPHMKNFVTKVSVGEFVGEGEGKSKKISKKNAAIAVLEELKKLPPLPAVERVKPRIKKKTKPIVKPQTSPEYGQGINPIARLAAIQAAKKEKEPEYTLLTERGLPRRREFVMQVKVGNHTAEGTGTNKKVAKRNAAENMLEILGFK
Data set [2] has as its target dsRBD3/4 S208A Q212A Q215A (Homo sapiens, UniProt O95793-2 102-274, S208A;Q212A;Q215A).
Data set [3] has as its target dsRBD3/4 E110A L113A Q212A Q215A (Homo sapiens, UniProt O95793-2 102-274, E110A;L113A;Q212A;Q215A).
Data set [4] addresses dsRBD3/4 I105A S106A E110A L113A (Homo sapiens, UniProt O95793-2 102-274, I105A;S106A;E110A;L113A).

The Kd is the concentration at which binding is half-saturated. Low readings indicate a tighter complex, high ones a looser complex.

Chain of STAU1 dsRBD3/4 (O95793 183-355): as the sequence (O95793 183-355 I186A/S187A/S289A/Q293A/Q296A) above, with A4I, A5S, A107S, A111Q, A114Q counted along it
Chain of dsRBD3/4 Q212A Q215A (O95793 183-355 Q293A/Q296A): as the sequence (O95793 183-355 I186A/S187A/S289A/Q293A/Q296A) above, with A4I, A5S, A107S counted along it
Chain of dsRBD3/4 F109A R209A (O95793 183-355 F190A/R290A): as the sequence (O95793 183-355 I186A/S187A/S289A/Q293A/Q296A) above, with A4I, A5S, F8A, A107S, R108A, A111Q, A114Q counted along it
Chain of dsRBD4 S208A Q212A Q215A (O95793 286-355 S289A/Q293A/Q296A): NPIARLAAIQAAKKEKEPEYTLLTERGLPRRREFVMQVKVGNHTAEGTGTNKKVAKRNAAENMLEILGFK
Chain of dsRBD3 F109A (O95793 183-262 F190A): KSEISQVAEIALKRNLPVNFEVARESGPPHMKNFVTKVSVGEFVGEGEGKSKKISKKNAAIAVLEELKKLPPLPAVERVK
Chain of STAU1 dsRBD4 (O95793 286-355): as the sequence (O95793 286-355 S289A/Q293A/Q296A) above, with A4S, A8Q, A11Q counted along it
Chain of STAU1 dsRBD3 (O95793 183-262): as the sequence (O95793 183-262 F190A) above, with A8F counted along it
Chain of dsRBD4 Q212A Q215A (O95793 286-355 Q293A/Q296A): as the sequence (O95793 286-355 S289A/Q293A/Q296A) above, with A4S counted along it
Chain of dsRBD3/4 I105A S106A E110A L113A (O95793 183-355 I186A/S187A/E191A/L194A): as the sequence (O95793 183-355 I186A/S187A/S289A/Q293A/Q296A) above, with E9A, L12A, A107S, A111Q, A114Q counted along it
Chain of dsRBD3/4 F109A (O95793 183-355 F190A): as the sequence (O95793 183-355 I186A/S187A/S289A/Q293A/Q296A) above, with A4I, A5S, F8A, A107S, A111Q, A114Q counted along it
Chain of dsRBD3/4 I105A S106A (O95793 183-355 I186A/S187A): as the sequence (O95793 183-355 I186A/S187A/S289A/Q293A/Q296A) above, with A107S, A111Q, A114Q counted along it
Chain of dsRBD3 I105A S106A (O95793 183-262 I186A/S187A): as the sequence (O95793 183-262 F190A) above, with I4A, S5A, A8F counted along it
Chain of dsRBD3/4 S208A (O95793 183-355 S289A): as the sequence (O95793 183-355 I186A/S187A/S289A/Q293A/Q296A) above, with A4I, A5S, A111Q, A114Q counted along it
Chain of dsRBD3/4 E110A L113A (O95793 183-355 E191A/L194A): as the sequence (O95793 183-355 I186A/S187A/S289A/Q293A/Q296A) above, with A4I, A5S, E9A, L12A, A107S, A111Q, A114Q counted along it
Chain of dsRBD3/4 E110A L113A Q212A Q215A (O95793 183-355 E191A/L194A/Q293A/Q296A): as the sequence (O95793 183-355 I186A/S187A/S289A/Q293A/Q296A) above, with A4I, A5S, E9A, L12A, A107S counted along it
Chain of dsRBD3/4 K133A (O95793 183-355 K214A): as the sequence (O95793 183-355 I186A/S187A/S289A/Q293A/Q296A) above, with A4I, A5S, K32A, A107S, A111Q, A114Q counted along it
Chain of dsRBD3/4 R234A R236A (O95793 183-355 R315A/R317A): as the sequence (O95793 183-355 I186A/S187A/S289A/Q293A/Q296A) above, with A4I, A5S, A107S, A111Q, A114Q, R133A, R135A counted along it
Chain of dsRBD3/4 S208A Q212A Q215A (O95793 183-355 S289A/Q293A/Q296A): as the sequence (O95793 183-355 I186A/S187A/S289A/Q293A/Q296A) above, with A4I, A5S counted along it
Chain of dsRBD3 E110A L113A (O95793 183-262 E191A/L194A): as the sequence (O95793 183-262 F190A) above, with A8F, E9A, L12A counted along it
Chain of dsRBD3/4 R209A (O95793 183-355 R290A): as the sequence (O95793 183-355 I186A/S187A/S289A/Q293A/Q296A) above, with A4I, A5S, A107S, R108A, A111Q, A114Q counted along it

For the molecule GGAGUGCCAGAAGCUACGGUUUCUGGUACUCC (structured_RNA) [bottom 2/3 ARF1 SBS], the Kd with STAU1 dsRBD3/4 was found to be 31 ± 0.1 nM.
Same read-out and setting: in the case of GGCGAGUGCCAGAAGCUGUCUCCUUCGGGAGGCAGUUUCUGGUACUCGCC (structured_RNA) [long ARF1 SBS (19 bp, UUCG loop)] it was 26.5 ± 2.9 nM.
Regarding GGCAGAAGCUGCCUCUUCGGAGGCAGUUUCUGCC (structured_RNA) [top 2/3 ARF1 SBS (sARF1 SBS)], the Kd turned out to be 74.8 ± 17.6 nM in the data set with STAU1 dsRBD4; 43.7 ± 5.2 nM in [1]; 28.8 ± 2.7 nM with dsRBD3/4 I105A S106A; 31.5 ± 1.7 nM with dsRBD3 E110A L113A; 28 ± 4.4 nM in the data set with dsRBD3/4 S208A; 87.2 ± 3 nM in data set [2]. Moreover, the Kd in the data set with dsRBD3/4 K133A is 23.2 ± 9.7 nM; with dsRBD3/4 Q212A Q215A, 15.3 ± 0.7 nM; with dsRBD3 F109A it was 98.2 ± 8.7 nM; with dsRBD4 Q212A Q215A, 121 ± 15 nM; in the data set with dsRBD3/4 R209A, 17.7 ± 4.1 nM; with dsRBD4 S208A Q212A Q215A, 390 ± 38.4 nM. For the same molecule, the Kd in [3] is 18.5 ± 1.1 nM; with dsRBD3/4 F109A, 29.7 ± 5.8 nM; in the data set with STAU1 dsRBD3/4, 17.8 ± 4.3 nM; in the data set with dsRBD3/4 F109A R209A, 27.7 ± 5.5 nM; with dsRBD3/4 R234A R236A, 26 ± 9.1 nM; in data set [4], 21.8 ± 6.4 nM. The figures for the equilibrium dissociation constant (Kd) with dsRBD3 I105A S106A, with STAU1 dsRBD3 and in the data set with dsRBD3/4 E110A L113A were 147 ± 35.6 nM, 41.4 ± 1.5 nM and 18.5 ± 4.3 nM, respectively.
